Experimental findings from US10723771B2, “Modified microorganisms expressing SagA as anti-infective agents, probiotics and food components” (priority 2015, dated 2020) are described below.

For assay [1], the system named is S. Typhimurium. Nature of the assay: Liquid-treatment pulsed infection assay: C. elegans treated in liquid wells, then infected with S. Typhimurium, survival scored. Format: in vivo. Conditions: for Inhibition of S. Typhimurium pathogenesis (C. elegans survival): liquid wells 2 hours before infection, protein 10-20 μg/mL, defined fragments 50 μM, digests 100 μL; for Inhibition of S. Typhimurium pathogenesis (survival) in tol-1(nr2033) animals: tol-1(nr2033) C. elegans, liquid treatment. The source says: C. elegans infection assays: For each condition, 3 plates of 30 worms each (total 90 worms) were scored, unless otherwise noted. Mean percent survival and standard deviation of the triplicate plates for a representative experiment are shown for extended data figures. Mean percent survival and statistical comparisons by log rank test after Bonferroni correction for multiple comparisons using OASIS software are shown in the figures. E. faecium refers to strain Com15 unless otherwise noted in the figure legends. Worms were handled using a Leica M60 microscope and imaged using a Leica IC80 HD camera.
Liquid-treatment pulsed infection assay: Synchronized young adult worms were transferred to 96-well plate wells containing 32% BHI media, culture supernatant, or live cultures. For protein treatments, 10-20 μg/mL of protein in PBS was included in each well. For treatment with peptidoglycan digests, 100 μL of each digest was added to each well. For treatment with defined peptidoglycan fragments, 50 μM of each fragment in a mixture of PBS and water was included in each well. MDP, GlcNAc, and MurNAc were purchased from Sigma-Aldrich. MurNAc-L-Ala was synthesized as described below in Scheme 51. After 2 hours, worms were washed and transferred to lawns of IR715 grown on BHI plates for 1 day. Then, worms were washed and transferred to lawns of OP50 grown on NGM plates (Day 0). Worms were maintained on OP50-NGM plates and survival was scored.
Treatment of culture supernatants: Proteinase K treatment: Culture supernatant or media was digested with 0.1 mg/mL of proteinase K in the presence of 1 mM CaCl2 for 2 hours at 37° C. Then, 1 mM EGTA was added, and digestions were used in the liquid-treatment pulsed infection assay.
Trichloroacetic acid precipitation: Culture supernatant or media was precipitated with TCA (final concentration of 10%) overnight at 4° C. Precipitated proteins were pelleted and rinsed 2 times in acetone, then air-dried and resuspended in BHI media before use in the liquid-treatment pulsed infection assay. 10-kDa MWCO column filtration: E. faecium culture supernatant or media was filtered through 10-kDa MWCO columns (Vivaspin GE Healthcare), and the flow-thru was used in the liquid-treatment pulsed infection assay.
5-kDa MWCO column filtration of E. coli culture supernatants: E. coli BL21-RIL(DE3) expressing SagA-His or AS-His were induced in BHI media instead of LB as described above. Portions of the culture supernatants were filtered through 5-kDa MWCO columns (Vivaspin GE Healthcare), and the unfiltered supernatants, column concentrate, and column flow-thru were used in the liquid-treatment pulsed infection assay.
Peptidoglycan Digests: 100 μg of E. coli peptidoglycan (Invivogen) was digested with 20 μg lysozyme (Sigma) and 20 μg of SagA-His or AS-His overnight in a mixture of PBS and water at 37° C. Digests were then filtered through 5-kDa MWCO columns (Vivaspin GE Healthcare), and the flow-thru was used in the liquid-treatment pulsed infection assay.

The test system of assay [2] is S. Typhimurium. The assay is described as follows: Colonization and S. Typhimurium infection of mice (weight loss, fecal burden, survival). The conditions noted are these: MurNAc alone. Format: in vivo. As for the experimental part: Specific pathogen-free (SPF) mice were gavaged with either a single dose of 20 mg streptomycin or a daily dose of AMNV antibiotic cocktail (4 mg ampicillin, 2 mg metronidazole, 4 mg neomycin, and 2 mg vancomycin) for 7-14 days as indicated in the figure legends. Bacterial cultures were washed and resuspended in sterile PBS at 10^9/mL for E. faecium, E. faecalis, and L. plantarum or at 10^7/mL (SPF) or 10^3/mL (GF) for S. Typhimurium. Mice were colonized by gavage with 100 uL of the indicated bacterial suspension 4 hours before infection (for streptomycin-treated mice) or 2-7 days before infection (for AMNV and GF gnotobiotic mono-colonized mice). Colonization was followed by infection with S. Typhimurium by oral gavage at the doses indicated above and in the figure legends. Weight loss was monitored from just before infection, and mice were euthanized when they reached 80% baseline weight or when they appeared hunched or moribund, whichever occurred first. Death was not used as an end-point. Colony-forming units (CFU) in the feces were determined by plating 5 serial dilutions of feces suspended in sterile PBS on selective agars: Salmonella Shigella Agar (BD 211597) for S. Typhimurium, Enterococcosel Agar (BD 212205) for E. faecium and E. facealis, and MRS Agar with 8 ug/mL chloramphenicol for L. plantarum-vector and -SagA. Resulting quantities were normalized to feces weight.

Assay [3] has as its system S. Typhimurium. The assay is described as follows: Worm CFU measurements, S. Typhimurium. Format: in vivo, C. elegans. The conditions noted are these: protein-treated infected animals. As for the experimental part: Worm CFU measurements: Protocol for CFU measurements was adapted from previous protocol. Briefly, 5-20 worms were rinsed in drops of S buffer, and allowed to crawl free of bacteria on a sterile plate. These worms were then mechanically lysed in PBS using microtubes and pestles (Kimble-Chase). Serial dilutions of worm homogenate were plated on Salmonella-Shigella agar (BD BBL) or Enterococcosel (BD BBL) agar plates, and plates were incubated at 37° C. overnight.

Assay [4] deals with S. Typhimurium. The assay is described as follows: Growth of S. Typhimurium in the presence of SagA. The class given is cell-based. Conditions: LB media + 10 μg/ml protein. Here is the method:
(§1) Growth of E. coli and S. Typhimurium in the presence of SagA: LB media was inoculated with overnight cultures 1:100. Protein was added at 10 μg/mL and volumes were normalized across all conditions with PBS. OD600 was measured at given time points. Growth of OG1RF-sagA: BHI media was inoculated with overnight cultures 1:100. Chloramphenicol was added at 10 μg/mL as indicated. OD600 was measured at given time points.

In assay [5] the test system is E. coli BL21-RIL(DE3). Nature of the assay: Growth of E. coli in the presence of SagA. The class given is cell-based. The conditions noted are these: LB media + 10 μg/ml protein. As for the experimental part:
as §1

Assay [6] deals with SPI-1 type III protein secretion in S. Typhimurium. Nature of the assay: Salmonella protein secretion assay. The class given is cell-based. Conditions: LB + 10 μg/ml protein. Here is the method: Salmonella protein secretion assay: For each condition, 2 mL of LB was inoculated with overnight cultures 1:30. Protein was added to media at 10 μg/mL and volumes were normalized across all conditions with PBS. Cultures were grown for 4 hours, shaking at 37° C., the pelleted at 7000 g for 5 minutes. 1 mL of culture supernatant was precipitated with trichloro acetic acid (TCA) at a final concentration of 10% overnight at 4° C. Precipitated proteins were pelleted at 20,800 g for 30 minutes, rinsed 2 times in acetone, then air-dried. Proteins were then separated by SDS-PAGE and visualized by Coomassie staining.

The subject of assay [7] is E. coli BL21-RIL(DE3). The assay is described as follows: Growth (OD600) of E. coli expressing SagA, AS or SagA-SS. Format: cell-based. The conditions noted are these: IPTG-induced expression in E. coli BL21-RIL(DE3). As for the experimental part:
Bacterial growth curves: Growth of E. coli expressing SagA, AS, or SagA-SS: Cultures were grown as described for protein purification, except that OD600 was monitored at given time points using a Spectromax M2e spectrophotometer.

Assay [8] is described as follows: ANTS labeling assay of peptidoglycan digests. The class given is biochemical. Conditions: purified E. coli peptidoglycan digested with lysozyme and the protein. Here is the method:
E. coli supernatants were prepared by inoculating cultures 1:50 with an overnight culture of E. coli BL21-RIL(DE3) expressing SagA-His6 or AS-His6. Cultures were grown for 2 hours, then induced with 1 mM IPTG, and grown for an additional 2 hours. Enterococcus supernatants were prepared by growing cultures overnight. Cultures were pelleted, and supernatant was filtered through 10 kDa MWCO columns (Millipore Microcon). For peptidoglycan digests, 100 μg of E. coli peptidoglycan was digested with 20 μg lysozyme and 20 μg of SagA-His or AS-His overnight in a mixture of PBS and water at 37° C. Digests were filtered through 10 kDa MWCO columns. Culture supernatants, peptidoglycan digests, and defined peptidoglycan fragments were dried by speed-vac before ANTS labeling. ANTS labeling was using established techniques. 10 μl of ANTS reaction mix was added to each tube of dried material (1:1 mixture of 0.2 M ANTS (in 3:17 acetic acid:water): 1 M NaCNBH3 (in DMSO)). Reactions were incubated overnight at 37° C. 0.5-3.5 μL of the ANTS labeled mixtures were mixed 1:1 with 40% glycerol and samples were separated by native PAGE on a hand-cast 37-40% Tris-glycine acrylamide gel (19:1 polyacrylamide:bisacrylamide, with a 20% acrylamide stack) at 150 V for ˜3 hours or 80 V for ˜6 hours. Empty lanes adjacent to sample lanes were loaded with samples of ANTS labeled Ala-D-γ-Glu-Lys-D-Ala-D-Ala (Sigma). […]

Entries after “also recorded” stand apart in the source; their conditions may differ.

On to `CC(=O)N[C@H]1C(O)O[C@H](CO)[C@@H](O)[C@@H]1O[C@H](C)C(=O)N[C@@H](C)C(=O)N[C@H](CCC(=O)O)C(=O)O` (stereo partly drawn) [MDP, MurNAc-L-Ala-D-Glu], for which the “Inhibition of S. Typhimurium pathogenesis (C. elegans survival)” value (from here on “Inhibition … (C. elegans survival)”) in the assay on S. Typhimurium [1] is listed as “not protective; also recorded: did not inhibit S. Typhimurium pathogenesis”.

As for “N-acetylmuramic acid-L-alanine [MurNAc-L-Ala]”, in the assay on S. Typhimurium [1], the “Inhibition … (C. elegans survival)” value is recorded as “can inhibit S. Typhimurium pathogenesis; also recorded: sufficient to inhibit S. Typhimurium pathogenesis” and the “Inhibition of S. Typhimurium pathogenesis (survival) in tol-1(nr2033) animals” value (“Inhibition … in tol-1(nr2033) animals” for short) was “not protective”. In addition, the “Inhibition … in tol-1(nr2033) animals” value in the assay with S. Typhimurium [1] (listed as MurNAc-Ala) is listed as “do not inhibit S. Typhimurium pathogenesis”.

In the case of `CC(=O)N[C@H]1C(O)O[C@H](CO)[C@@H](O)[C@@H]1O` (some centres unmarked) [GlcNAc, N-acetylglucosamine], the “Inhibition … (C. elegans survival)” value with S. Typhimurium [1] is listed as “not protective; also recorded: did not inhibit S. Typhimurium pathogenesis”.

For the molecule `CC(=O)N[C@H]1C(O)O[C@H](CO)[C@@H](O)[C@@H]1O[C@H](C)C(=O)O` (some centres unmarked) [MurNAc], in the assay on S. Typhimurium [1], the “Inhibition … (C. elegans survival)” value is “can inhibit S. Typhimurium pathogenesis; also recorded: sufficient to inhibit S. Typhimurium pathogenesis” and the “Inhibition … in tol-1(nr2033) animals” value is reported as “do not inhibit S. Typhimurium pathogenesis; also recorded: not protective”. Besides, the “Protection of antibiotic-treatment mice from S. Typhimurium pathogenesis” value with S. Typhimurium [2] is reported as “insufficient to protect antibiotic-treatment mice from S. Typhimurium pathogenesis”.

B1: SagA: E. faecium secreted antigen A, NlpC/p60 peptidoglycan hydrolase, SEQ ID NO:1, purified His6-tagged (protein, listed as Enterococcus faecium)
chain: MKKSLISAVMVCSMTLTAVASPIAAAADDFDSQIQQQDQKIADLKNQQADAQSQIDALESQVSEINTQAQDLLAKQDTLRQESAQLVKDIADLQERIEKREDTIQKQAREAQVSNTSSNYIDAVLNADSLADAIGRVQAMTTMVKANNDLMEQQKQDKKAVEDKKAENDAKLKELAENQAALESQKGDLLSKQADLNVLKTSLAAEQATAEDKKADLNRQKAEAEAEQARIREQQRLAEQARQQAAQEKAEKEAREQAEAEAQATQASSTAQSSASEESSAAQSSTTEESSSAAQSSTTEESTTAPESSTTEESTTAPESSTTEESTTVPESSTTEESTTVPESSTTEESTTVPESSTTEESTTVPETSTEESTTPAPTTPSTDQSVDPGNSTGSNATNNTTNTTPTPTPSGSVNGAAIVAEAYKYIGTPYVWGGKDPSGFDCSGFTRYVYLQVTGRDIGGWTVPQESAGTKISVSQAKAGDLLFWGSPGGTYHVAIALGGGQYIHAPQPGESVKVGSVQWFAPDFAVSM
modifications: His6 tag
Turning to B1, the entries for the “Inhibition … (C. elegans survival)” value with S. Typhimurium [1] and in the assay with S. Typhimurium [1] (listed as SagA-His6) were “inhibits S. Typhimurium pathogenesis” and “sufficient to inhibit S. Typhimurium pathogenesis”, respectively. The “S. Typhimurium colonization of C. elegans (imaging and CFU)” value with S. Typhimurium [3] is on record as “does not affect S. Typhimurium colonization of C. elegans”. Also, the “Effect on growth rate of S. Typhimurium in culture” value in the assay with S. Typhimurium [4] is recorded as “no effect on the growth rate of S. Typhimurium”. For the same molecule, the “Effect on growth rate of E. coli in culture” value with E. coli BL21-RIL(DE3) [5] is listed as “no effect on the growth rate of E. coli”. Also, the “Effect on secretion of S. Typhimurium type III protein effectors (SPI-1) in culture” value is “does not affect SPI-1 secretion in culture” in assay [6] and “no effect” in assay [6] (listed as recombinant SagA). Moreover, the “E. coli cell lysis (culture optical density) on induced expression” value in the assay on E. coli BL21-RIL(DE3) [7] is listed as “decrease in culture optical density”. The “Peptidoglycan cleavage product (ANTS visualization)” value in assay [8] is listed as “yielded a unique peptidoglycan cleavage product with similar mobility to MurNAc-L-Ala”.
